Data on one molecule can be found in publication PMC6719446 (The Journal of Cell Biology, 2019).

This experiment concerns the target T1, Purified ASB11 bound on anti-Myc beads (human (ASB11 cDNA amplified from 293T …, UniProt Q8WXH4 1-323)).
T1 sequence (looked up): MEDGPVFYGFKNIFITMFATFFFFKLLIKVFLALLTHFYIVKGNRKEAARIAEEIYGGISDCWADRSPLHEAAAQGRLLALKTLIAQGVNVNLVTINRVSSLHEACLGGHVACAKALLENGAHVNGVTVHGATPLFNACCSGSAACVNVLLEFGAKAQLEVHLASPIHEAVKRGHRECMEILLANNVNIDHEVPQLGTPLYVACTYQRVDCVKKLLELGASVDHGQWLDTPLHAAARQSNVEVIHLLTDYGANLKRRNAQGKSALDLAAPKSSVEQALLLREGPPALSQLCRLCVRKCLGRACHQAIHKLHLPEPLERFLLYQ
Description: pull-down.

B1: 3xFlag-BIK (natural protein, UniProt Q13323 1-160, looked up)
chain: MSEVRPLSRDILMETLLYEQLLEPPTMEVLGMTDSEEDLDPMEDFDSLECMEGSDALALRLACIGDEMDVSLRAPRLAQLSEVAMHSLGLAFIYDQTEDIRDVLRSFMDGFTTLKENIMRFWRSPNPGSWVSCEQVLLALLLLLALLLPLLSGGLHLLLK
B1: the binding result is reported as “binds”.
